Test results from patent publication US20230404098A1.

Target: Bovine kappa casein purified from cow's milk (Sigma Aldrich) (bovine (cow)) (UniProt P02668)
Experiment: cell-based or functional assay

Sequence of UniProt P02668 (P02668 22-190): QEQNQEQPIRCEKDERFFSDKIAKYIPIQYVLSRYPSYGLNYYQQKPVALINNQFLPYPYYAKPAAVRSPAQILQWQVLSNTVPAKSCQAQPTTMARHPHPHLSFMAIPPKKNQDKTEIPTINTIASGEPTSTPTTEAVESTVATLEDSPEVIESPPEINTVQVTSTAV

Recombinantly-produced N-terminally 6xhistidine-tagged bovine (cow) alpha-s1-casein (lacking PTMs)
Average A450 (turbidity of the micellar colloid): 0.13 A450
